Reference: article PMC3578176 (Cancer research, 2012)

Target: His(6)-p300 (UniProt Q09472 1-2414)
Test: pull-down

Sequence of His(6)-p300 (Q09472 whole entry): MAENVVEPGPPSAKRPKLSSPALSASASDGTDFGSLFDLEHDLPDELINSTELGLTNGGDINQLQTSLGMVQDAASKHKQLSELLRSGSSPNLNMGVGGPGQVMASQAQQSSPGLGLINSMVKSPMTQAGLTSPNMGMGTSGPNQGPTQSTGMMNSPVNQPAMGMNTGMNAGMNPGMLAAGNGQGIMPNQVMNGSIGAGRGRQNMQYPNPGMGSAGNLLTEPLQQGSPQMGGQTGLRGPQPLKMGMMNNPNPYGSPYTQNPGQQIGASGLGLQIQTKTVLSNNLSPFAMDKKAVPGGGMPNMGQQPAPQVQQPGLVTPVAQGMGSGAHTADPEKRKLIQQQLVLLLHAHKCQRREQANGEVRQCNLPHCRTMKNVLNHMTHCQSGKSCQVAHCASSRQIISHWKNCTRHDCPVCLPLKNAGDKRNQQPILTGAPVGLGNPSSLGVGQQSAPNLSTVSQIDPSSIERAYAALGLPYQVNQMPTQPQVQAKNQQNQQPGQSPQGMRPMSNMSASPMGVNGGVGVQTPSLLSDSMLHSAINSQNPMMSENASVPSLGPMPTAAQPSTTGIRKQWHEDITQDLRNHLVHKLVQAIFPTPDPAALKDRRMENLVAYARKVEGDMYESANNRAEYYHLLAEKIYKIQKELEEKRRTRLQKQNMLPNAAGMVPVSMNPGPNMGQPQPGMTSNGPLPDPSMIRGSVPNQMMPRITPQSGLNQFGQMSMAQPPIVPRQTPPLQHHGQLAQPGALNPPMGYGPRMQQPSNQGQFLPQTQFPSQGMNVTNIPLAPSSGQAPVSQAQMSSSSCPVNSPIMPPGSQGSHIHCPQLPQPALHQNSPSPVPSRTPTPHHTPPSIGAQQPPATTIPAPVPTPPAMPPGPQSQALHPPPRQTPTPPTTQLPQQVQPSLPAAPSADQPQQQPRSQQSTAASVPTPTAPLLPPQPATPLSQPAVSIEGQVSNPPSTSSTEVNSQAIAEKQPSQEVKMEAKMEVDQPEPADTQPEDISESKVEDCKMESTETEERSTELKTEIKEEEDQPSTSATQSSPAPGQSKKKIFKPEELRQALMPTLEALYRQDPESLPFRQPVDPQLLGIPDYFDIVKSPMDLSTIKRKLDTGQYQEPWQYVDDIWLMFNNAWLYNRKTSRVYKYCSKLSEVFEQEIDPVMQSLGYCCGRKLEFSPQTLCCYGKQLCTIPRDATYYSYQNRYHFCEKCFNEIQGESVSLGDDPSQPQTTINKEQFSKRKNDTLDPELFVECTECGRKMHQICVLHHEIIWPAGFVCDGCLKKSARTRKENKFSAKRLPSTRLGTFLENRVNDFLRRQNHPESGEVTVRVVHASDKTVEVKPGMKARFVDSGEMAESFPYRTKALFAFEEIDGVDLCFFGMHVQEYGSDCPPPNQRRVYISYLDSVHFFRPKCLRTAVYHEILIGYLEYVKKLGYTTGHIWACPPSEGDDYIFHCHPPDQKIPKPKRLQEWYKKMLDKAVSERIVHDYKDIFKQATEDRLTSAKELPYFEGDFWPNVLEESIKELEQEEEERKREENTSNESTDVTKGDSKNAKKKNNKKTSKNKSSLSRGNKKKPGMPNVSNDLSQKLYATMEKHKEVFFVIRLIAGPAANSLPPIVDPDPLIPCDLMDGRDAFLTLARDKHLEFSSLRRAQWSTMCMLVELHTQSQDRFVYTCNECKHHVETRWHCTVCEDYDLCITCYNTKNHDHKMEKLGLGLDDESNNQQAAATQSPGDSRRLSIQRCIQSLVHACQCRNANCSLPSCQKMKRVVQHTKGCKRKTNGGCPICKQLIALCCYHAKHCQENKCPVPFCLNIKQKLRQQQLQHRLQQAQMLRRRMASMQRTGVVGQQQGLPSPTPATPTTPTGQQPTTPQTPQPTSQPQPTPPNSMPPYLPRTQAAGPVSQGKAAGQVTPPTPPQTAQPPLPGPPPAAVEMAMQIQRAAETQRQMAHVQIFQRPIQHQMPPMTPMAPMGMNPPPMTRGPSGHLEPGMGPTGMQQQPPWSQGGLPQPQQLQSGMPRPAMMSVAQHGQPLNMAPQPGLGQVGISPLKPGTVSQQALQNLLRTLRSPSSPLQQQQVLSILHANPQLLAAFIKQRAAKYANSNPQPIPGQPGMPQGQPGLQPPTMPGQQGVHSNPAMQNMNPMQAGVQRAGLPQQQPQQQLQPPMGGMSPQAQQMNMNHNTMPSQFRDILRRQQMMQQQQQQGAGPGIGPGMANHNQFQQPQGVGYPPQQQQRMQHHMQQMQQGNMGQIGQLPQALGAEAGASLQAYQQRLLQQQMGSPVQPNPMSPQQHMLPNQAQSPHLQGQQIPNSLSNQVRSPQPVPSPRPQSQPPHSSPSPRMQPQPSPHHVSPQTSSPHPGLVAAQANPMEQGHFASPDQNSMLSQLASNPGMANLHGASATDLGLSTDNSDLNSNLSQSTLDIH

binding result: binds
B1: GST-fused BRMS1 WT (natural protein, UniProt Q9HCU9 1-246, looked up)
chain: MPVQPPSKDTEEMEAEGDSAAEMNGEEEESEEERSGSQTESEEESSEMDDEDYERRRSECVSEMLDLEKQFSELKEKLFRERLSQLRLRLEEVGAERAPEYTEPLGGLQRSLKIRIQVAGIYKGFCLDVIRNKYECELQGAKQHLESEKLLLYDTLQGELQERIQRLEEDRQSLDLSSEWWDDKLHARGSSRSWDSLPPSKRKKAPLVSGPYIVYMLQEIDILEDWTAIKKARAAVSPQKRKSDGP
